The values that follow come from the supplement of paper PMC9170038.

For this series, the system named is MS2 coat protein. Kind of series: apparent KD of MS2 coat protein; designed switch direction (-1 OFF switch, 1 ON switch): 1; higher = weaker reporter binding. A digest of the protocol: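 Designed RNA switches were transcribed on Illumina chips by stalled E. coli RNA polymerase and titrated with SNAP-549-labelled MS2 coat protein from 0.7 or 1.5 nM, doubling to 3 µM. Step length ran from 0.8–1.5 h at the lowest concentration to 10–20 min at the highest. The apparent KD is the median over clusters for each design, from curve-fitted normalised cluster fluorescence.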

The mark [1] stands for this setting: input ligand: microRNA oligo, concentration not stated.
The mark [2] stands for this setting: Eterna round: R95, input ligand: FMN 200 uM.
Where [3] appears, read: Eterna round: R95, input ligand: microRNA oligo, concentration not stated.
Where [4] appears, read: Eterna round: R95, input ligand: none.

Consider “GCGAGCGUACUUGCAACAUGAGGAUCACCCAUGUUAACUGGACAGGAUAUGGUACCGUUUCGGUACCAGAAGGGUUUAUCAUGU [JL SSNG3 3.66] (Eterna round: R96, puzzle: Same State NG 3)”, for which the “apparent KD of MS2 coat protein” value (input ligand: FMN 200 uM) is 92.3 nM, the “apparent KD of MS2 coat protein” value under setting [1] turned out to be 92.8 nM and the “apparent KD of MS2 coat protein” value (input ligand: none) came out at 116 nM.

For the sequence “GCGAGCGUACUUGCAACAUGAGGAUCACCCAUGUUAACUGGACAGGAUAUGGUACCGUUUCGGUACCAGAAGGGUUUUUCAUGG [JL SSNG3 3.64] (Eterna round: R96, puzzle: Same State NG 3)”, the “apparent KD of MS2 coat protein” value reads like this: (input ligand: FMN 200 uM) 85.6 nM; under setting [1], 50.6 nM; (input ligand: none) 74.3 nM.

With “GCGAGCGUACUUGCUACAUGAGGAUCACCCAUGUUCGUUGGACAGGAUAUGGUACCGUUUCGGUACCAGAAGGGUUCACAUGUG [JL SSNG3 3.78] (Eterna round: R96, puzzle: Same State NG 3)”, the “apparent KD of MS2 coat protein” value by setting is: (input ligand: FMN 200 uM) 142 nM; under setting [1], 158 nM; (input ligand: none) 242 nM.

In the case of “GCGAGCGUACUUGCUACAUGAGGAUCACCCAUGUUCGUUGGACAGGAUAUGGUACCGUUUCGGUACCAGAAGGGUUCAUCAUGA [JL SSNG3 3.76] (Eterna round: R96, puzzle: Same State NG 3)”, the “apparent KD of MS2 coat protein” value by setting is: (input ligand: FMN 200 uM) 75.7 nM; under setting [1], 147 nM; (input ligand: none) 241 nM.

With “GCGAGCGUACUUGCUACAUGAGGAUCACCCAUGUUUAUUGGACAGGAUAUGGUACCGUUUCGGUACCAGAAGGGUCCACAUGUA [JL SSNG3 3.85] (Eterna round: R96, puzzle: Same State NG 3)”, the “apparent KD of MS2 coat protein” value is, setting by setting: (input ligand: FMN 200 uM) 124 nM; under setting [1], 198 nM; (input ligand: none) 549 nM.

For the sequence “GCGAGCGUACUUGCUACAUGAGGAUCACCCAUGUUUCAUGGACAGGAUAUGGUACCGUUUCGGUACCAGAAGGGUUCACAUGUG [JL SSNG3 3.81] (Eterna round: R96, puzzle: Same State NG 3)”, the “apparent KD of MS2 coat protein” value (input ligand: FMN 200 uM) turned out to be 88.7 nM, the “apparent KD of MS2 coat protein” value under setting [1] is 68 nM and the “apparent KD of MS2 coat protein” value (input ligand: none) came out at 92.1 nM.

On to “GCGAGCGUACUUGCUACAUGAGGAUCACCCAUGUUUUAUGGACAGGAUAUGGUACCGUUUCGGUACCAGAAGGGUUCACAUGUA [JL SSNG3 3.83] (Eterna round: R96, puzzle: Same State NG 3)”, for which the “apparent KD of MS2 coat protein” value is 116 nM (input ligand: FMN 200 uM), 150 nM under setting [1] and 426 nM (input ligand: none).

For the sequence “GCGAUCUACCGGAAGGUAGAUCGGCUUGUACAUGAGGAUCACCCAUGUCUGUACAAGCUUUUUGCUCGUCUUAUGGG [salish99-hsa-208a-66] (Eterna round: R96, puzzle: Sensor for hsa-mir-208a)”, the “apparent KD of MS2 coat protein” value stood at 1150 nM (input ligand: FMN 200 uM), 27.9 nM under setting [1] and 713 nM (input ligand: none).

Turning to “GCGCAAUGAUGUGACAUGAGGAUCACCCAUGUAACCUCAUGUAAGGAUAUCGGGAAAAAAAAAACCGAGAAGGUAUGGUCACGC [AK SSNG3-V2-27.2] (Eterna round: R96, puzzle: Same State NG 3)”, the “apparent KD of MS2 coat protein” value runs as follows: (input ligand: FMN 200 uM) 145 nM; under setting [1], 61.4 nM; (input ligand: none) 138 nM.

Consider “GCGCAGCUGGGUGAGGAUAUCGGUGGUAAAACAUGAGGAUCACCCAUGUCCGAAGCUCGGACUUCCGAGAAGGCGCCCGGCUGCA [Ridigea] (puzzle: Same State 2)”, for which the “apparent KD of MS2 coat protein” value under setting [2] came out at 13 nM, the “apparent KD of MS2 coat protein” value under setting [3] came out at 72.3 nM and the “apparent KD of MS2 coat protein” value under setting [4] came out at 115 nM.

With “GCGCAGCUGGGUGAGGAUAUCGGUGGUAAAACAUGAGGAUCACCCAUGUCCGGAGCUCGGACUUCCGAGAAGGCACCCGGCUGCA [Erisais] (puzzle: Same State 2)”, the “apparent KD of MS2 coat protein” value under setting [3] came to 27.2 nM.

On to “GCGGAACCUGACAUGAGGAUCACCCAUGUUCCGGAAACGGCACAGGAUAUCUGUCCGAAAAGGUCAGAGAAGGGUGGAAACCGC [Fiskers NG3ss - 98] (Eterna round: R96, puzzle: Same State NG 3)”, for which the “apparent KD of MS2 coat protein” value by setting is: (input ligand: FMN 200 uM) 68 nM; under setting [1], 179 nM; (input ligand: none) 193 nM.

With “GCGGCGGCACGGCAGGAUAUGAUAAAACCUACAUGAGGAUCACCCAUGUCGGCGGGUUGCAAAAUUCAGAAGGGCCCUGUAGGCC [Leorzaonis] (puzzle: Same State 2)”, the “apparent KD of MS2 coat protein” value is, setting by setting: under setting [2], 16.6 nM; under setting [3], 34.6 nM; under setting [4], 38.6 nM.

For “GCGGUACCUAACAUGAGGAUCACCCAUGUUCCGGAAACGGCACAGGAUAUCUGUCCGAAAAGGUCAGAGAAGGGUGAAAACCGC [Fiskers NG3ss - 94] (Eterna round: R96, puzzle: Same State NG 3)”, the “apparent KD of MS2 coat protein” value reads like this: (input ligand: FMN 200 uM) 489 nM; under setting [1], 396 nM; (input ligand: none) 478 nM.

In the case of “GCUACCAUAGAAGCCAACAUGAGGAUCACCCAUGUAUGUUGGUAGGAUAUCGAUUGCAAAGCGAUCGAGAAGGGCUAAGGUAGC [Mat - Same State NG 3 - JL Mod - D83] (Eterna round: R96, puzzle: Same State NG 3)”, the “apparent KD of MS2 coat protein” value reads like this: (input ligand: FMN 200 uM) 164 nM; under setting [1], 130 nM; (input ligand: none) 139 nM.

Consider “GCUACCAUUGAAGCCAACAUGAGGAUCACCCAUGUAUGUUGGUAGGAUAUCGAUUGCAAAGCGAUCGAGAAGGGCUAAGGUAGC [Mat - Same State NG 3 - JL Mod - D81] (Eterna round: R96, puzzle: Same State NG 3)”, for which the “apparent KD of MS2 coat protein” value runs as follows: (input ligand: FMN 200 uM) 81.2 nM; under setting [1], 57.4 nM; (input ligand: none) 66.8 nM.

Take “GCUACCAUUGAAGCCUACAUGAGGAUCACCCAUGUAUGUAGGCAGGAUAUCGAUUGCAAAGCGAUCGAGAAGGGCUUAGGUAGC [Mat - Same State NG 3 - JL Mod - D90] (Eterna round: R96, puzzle: Same State NG 3)”: the “apparent KD of MS2 coat protein” value (input ligand: FMN 200 uM) amounted to 30.8 nM, the “apparent KD of MS2 coat protein” value under setting [1] is 52.2 nM and the “apparent KD of MS2 coat protein” value (input ligand: none) is 79.1 nM.

On to “GCUACCAUUGAAGCCUACAUGAGGAUCACCCAUGUAUGUAGGCAGGAUAUCGAUUGCUUUGCGAUCGAGAAGGGCUUAGGUAGC [JL SSNG3 1.30] (Eterna round: R96, puzzle: Same State NG 3)”, for which the “apparent KD of MS2 coat protein” value runs as follows: (input ligand: FMN 200 uM) 21.6 nM; under setting [1], 47.5 nM; (input ligand: none) 60.8 nM.

On to “GCUACGGACGUAGGAUAUGUAGGAUAUGGUGAGAGCUAAGCUUGGAAGUCACUUCAACCAGAAGGACAGAAGGACGCCGUGAGG [pwkr ssNG2 2FMN + F9.18] (Eterna round: R96, puzzle: Same State NG 2)”, for which the “apparent KD of MS2 coat protein” value stood at 241 nM (input ligand: FMN 200 uM), 13.4 nM under setting [1] and 52.2 nM (input ligand: none).

For “GCUAGAAAUAAAGCCAACAUGAGGAUCACCCAUGUAUGUUGGCAGGAUAUCGUAUGCAAAGCAUACGAGAAGGGCCAAACUAGC [Mat - Same State NG 3 - JL Mod - D3] (Eterna round: R96, puzzle: Same State NG 3)”, the “apparent KD of MS2 coat protein” value is, setting by setting: (input ligand: FMN 200 uM) 37.3 nM; under setting [1], 85 nM; (input ligand: none) 117 nM.

For the sequence “GCUAGAAUAAAAGCCAACAUGAGGAUCACCCAUGUAUGUUGGCAGGAUAUCGUUUGCAAAGCAAACGAGAAGGGCCAUACUAGC [Mat - Same State NG 3 - JL Mod - D23] (Eterna round: R96, puzzle: Same State NG 3)”, the “apparent KD of MS2 coat protein” value is, setting by setting: (input ligand: FMN 200 uM) 45.1 nM; under setting [1], 109 nM; (input ligand: none) 117 nM.

On to “GCUAGAAUUAAAGCCAACAUGAGGAUCACCCAUGUAUGUUGGCAGGAUAUCGUUUGCUUUGCAAACGAGAAGGGCCAUACUAGC [JL SSNG3 1.08] (Eterna round: R96, puzzle: Same State NG 3)”, for which the “apparent KD of MS2 coat protein” value is, setting by setting: (input ligand: FMN 200 uM) 47.7 nM; under setting [1], 98.1 nM; (input ligand: none) 134 nM.

In the case of “GCUAGAAUUAACGCCUACAUGAGGAUCACCCAUGUAUGUAGGCAGGAUAUCGUUUGCAAAGCAAACGAGAAGGGCCUUACUAGC [Mat - Same State NG 3 - JL Mod - D31] (Eterna round: R96, puzzle: Same State NG 3)”, the “apparent KD of MS2 coat protein” value runs as follows: (input ligand: FMN 200 uM) 27.3 nM; under setting [1], 31 nM; (input ligand: none) 46.5 nM.

As for “GCUAGGAUAUGAAGAGGAUCACCCUUUAGAAGGAGCAUUAGCUAGGAUAUGAAGAGGAUCACCCUUUAGAAGGAGCACUACUCU [pwkr ssNG3 DX 2xF5 +2xFMN.7] (Eterna round: R96, puzzle: Same State NG 3)”, the “apparent KD of MS2 coat protein” value turned out to be 531 nM (input ligand: FMN 200 uM), 286 nM under setting [1] and 292 nM (input ligand: none).

Regarding “GCUAGGAUAUGACGAGGAUCACCCGUUAGAAGGAGCUUCAGCUAGGAUAUGACGAGGAUCACCCGUUAGAAGGAGCACUACUCU [pwkr ssNG3 DX 2xF5 +2xFMN.8] (Eterna round: R96, puzzle: Same State NG 3)”, the “apparent KD of MS2 coat protein” value runs as follows: (input ligand: FMN 200 uM) 205 nM; under setting [1], 90.9 nM; (input ligand: none) 91.4 nM.

For the sequence “GCUAGGAUUAAAGCCAACAUGAGGAUCACCCAUGUAUGUUGGUAGGAUAUCGUUUGCAAAGCAAACGAGAAGGGCUAACCUAGC [Mat - Same State NG 3 - JL Mod - D67] (Eterna round: R96, puzzle: Same State NG 3)”, the “apparent KD of MS2 coat protein” value (input ligand: FMN 200 uM) came out at 88.3 nM, the “apparent KD of MS2 coat protein” value under setting [1] came to 73 nM and the “apparent KD of MS2 coat protein” value (input ligand: none) turned out to be 92.6 nM.
